Laboratory results as given in patent US20150320880A1, “ANTIBODY DRUG CONJUGATES” (NOVARTIS AG, priority 2013, published 2015).

Columns and labels:
Uke-1 cells = assay: ADCC activity in vitro (Calcein release, NK3.3 effector cells); assay type: cell-based; settings: effector to target ratio 20 to 1
Description: In brief, Uke-1 cells were stained with Calcein acetoxy-methyl ester (Calcein-AM; Sigma-Aldrich catalog #17783-5MG, St. Louis, Mo.), washed twice, pipetted into a 96-well microtiterplate (96 well, U-bottomed, clear plastic; Corning Costar, catalog #650 160, Tewksbury, Mass.) at a concentration of 5000 cells per well and pre-incubated for 10 min with a serial dilution of the above mentioned antibodies and proteins (from 50,000 to 0.003 μg per ml) before adding the effector NK3.3 cells for 1 hour in an effector to target ratio of 20 to 1. In order to calculate the antibody specific lysis of the target cells, a parallel incubation of target cells only without antibody or effector cells served as a baseline and negative control, whereas the positive control or maximal lysis or hundred percent specific lysis was determined by lysis of target cells only with a 1% Triton-X 100 solution. […] Following a co-incubation of target and effector cells, the microtiterplate was centrifuged and an aliquot of the supernatant fluid was transferred to another microtiterplate (96 well, flat-bottomed, black with clear bottom; (Corning Costar, catalog #3904, Tewksbury, Mass.) and the concentration of free Calcein in solution was determined with a fluorescence counter (Victor 3 ® multilabel counter, Perkin Elmer, Waltham, Mass.).

[1] = test system: GIST T1 subcutaneous tumor xenograft; settings: Example 28, single i.v. dose: 9P3 10 mg/kg, IgG1-MCC-DM1 5 mg/kg, IgG1-SPDB-DM4 10 mg/kg, 9P3-MCC-DM1 5 and 10 mg/kg, 9P3-SPDB-DM4 2.5 and 5 mg/kg
Description: The anti-tumor activity of anti-cKIT ADCs was evaluated in several tumor xenograft models.

SCF binding to cKIT = SCF binding to cKIT (Homo sapiens, UniProt P10721); assay: Competition assays (ELISA and FACS) of SCF binding to cKIT
human cKIT ECD = molecular target: T1, human cKIT ECD (Homo sapiens, UniProt P10721); assay: SPR (Biacore 2000) affinity measurement; assay type: binding; settings: 25° C.
T1 construct: Human cKIT tr. variant 2, residues 26-520-TAG; made in house; host or cells: HEK293 derived cell lines (293FS), transient transfection
Description: (§1) Affinity of the antibodies to cKIT species orthologues and also to cKIT was determined using SPR technology using a Biacore® 2000 instrument (GE Healthcare, Pittsburgh, Pa.) and with CM5 sensor chips.
(§2) Briefly, HBS-P (0.01 M HEPES, pH 7.4, 0.15 M NaCl, 0.005% Surfactant P20) supplemented with 2% Odyssey® blocking buffer (Li-Cor Biosciences, Lincoln, Nebr.) was used as the running buffer for all the experiments. The immobilization level and analyte interactions were measured by response unit (RU). Pilot experiments were performed to test and confirm the feasibility of the immobilization of the anti-human Fc antibody (Catalog number BR100839, GE Healthcare, Pittsburgh, Pa.) and the capture of the test antibodies.
(§3) For kinetic measurements, the experiments were performed in which the antibodies were captured to the sensor chip surface via the immobilized anti-human Fc antibody and the ability of the cKIT proteins to bind in free solution was determined Briefly, 25 μg/ml of anti-human Fc antibody at pH 5 was immobilized on a CM5 sensor chip through amine coupling at flow rate of 5 μl/minute on all two flow cells to reach 10,500 RUs. 0.1-1 μg/ml of test antibodies were then injected at 10 μl/min for 1 minute. Captured levels of the antibodies were generally kept below 200 RUs. Subsequently, 3.125-50 nM of cKIT receptor extracellular domains (ECD) were diluted in a 2-fold series and injected at a flow rate of 40 μl/min for 3 min over both reference and test flow cells. Table of tested ECDs is listed below. Dissociation of the binding was followed for 10 min. After each injection cycle, the chip surface was regenerated with 3 M MgCl2 at 10 μl/min for 30 s.

mouse cKIT ECD = assay: SPR (Biacore 2000) affinity measurement; assay type: binding; settings: 25° C.
Description: as §1, §2, §3

[2] = molecular target: T2, Mouse cKIT ECD, C-terminal 6x His (Sino Biological Inc, catalog number 50530-M08H) (mouse, UniProt P05532 25-527); assay: SPR (Biacore 2000), antibody captured on anti-human Fc
T2 construct: extracellular domain; Bought protein
T2 sequence (looked up): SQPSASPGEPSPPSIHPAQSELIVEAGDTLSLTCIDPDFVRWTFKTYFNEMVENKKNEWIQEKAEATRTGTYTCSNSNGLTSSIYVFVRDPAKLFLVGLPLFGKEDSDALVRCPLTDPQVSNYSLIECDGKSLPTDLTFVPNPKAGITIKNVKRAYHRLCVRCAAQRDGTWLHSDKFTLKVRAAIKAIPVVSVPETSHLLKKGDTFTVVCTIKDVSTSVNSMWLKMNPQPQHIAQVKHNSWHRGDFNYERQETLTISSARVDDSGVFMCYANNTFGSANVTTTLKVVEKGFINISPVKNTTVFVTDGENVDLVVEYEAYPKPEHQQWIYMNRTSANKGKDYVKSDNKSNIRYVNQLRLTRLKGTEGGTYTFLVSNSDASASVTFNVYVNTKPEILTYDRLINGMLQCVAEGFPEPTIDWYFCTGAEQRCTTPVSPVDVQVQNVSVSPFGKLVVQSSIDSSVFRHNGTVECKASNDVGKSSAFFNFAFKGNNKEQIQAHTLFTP

[3] = molecular target: T3, Rat cKIT D1-5 (residues 25-526, C-terminal mFc) (rat); assay: as above
T3 construct: The entry includes the linker and mouse Fc tag; also called rat cKIT-mFc
T3 chain: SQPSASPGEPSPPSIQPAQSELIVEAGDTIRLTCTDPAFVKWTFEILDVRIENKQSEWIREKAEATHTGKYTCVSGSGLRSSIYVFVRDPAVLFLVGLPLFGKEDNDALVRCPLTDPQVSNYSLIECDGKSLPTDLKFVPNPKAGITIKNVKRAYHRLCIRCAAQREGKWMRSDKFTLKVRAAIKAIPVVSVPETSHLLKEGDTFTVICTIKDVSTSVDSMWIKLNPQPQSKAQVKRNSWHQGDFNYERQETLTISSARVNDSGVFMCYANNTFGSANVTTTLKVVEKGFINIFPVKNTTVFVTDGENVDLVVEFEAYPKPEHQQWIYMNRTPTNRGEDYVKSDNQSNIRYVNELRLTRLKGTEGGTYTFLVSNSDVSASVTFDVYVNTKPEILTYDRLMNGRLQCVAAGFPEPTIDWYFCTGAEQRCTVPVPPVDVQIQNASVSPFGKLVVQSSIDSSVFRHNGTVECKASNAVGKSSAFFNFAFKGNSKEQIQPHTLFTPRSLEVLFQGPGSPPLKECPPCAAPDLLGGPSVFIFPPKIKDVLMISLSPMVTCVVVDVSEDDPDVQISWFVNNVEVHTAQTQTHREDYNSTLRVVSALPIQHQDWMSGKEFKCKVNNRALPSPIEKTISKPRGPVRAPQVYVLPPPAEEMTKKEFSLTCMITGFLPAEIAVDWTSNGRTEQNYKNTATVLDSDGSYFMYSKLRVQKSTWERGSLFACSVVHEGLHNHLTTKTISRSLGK

[4] = molecular target: T4, Human cKIT D1-5 (human cKIT tr. variant 2, residues 26-520, C-terminal His tag) (human, UniProt P10721 26-524); assay: SPR (Biacore 2000), antibody captured on anti-human Fc, cKIT ECD as analyte, 25 C, 1:1 fit
T4 construct: also called human cKIT ECD; Human c-Kit ECD

[5] = molecular target: T5, Human cKIT D1-3 (human cKIT tr. variant 1, residues 26-311, tagged) (human, UniProt P10721 26-311); assay: ELISA on coated cKIT subdomain constructs (Example 6)
T5 construct: also called cKIT subdomains 1-3
T5 sequence (P10721 other isoform, or with tags, fused parts or gaps mutant limits assumed): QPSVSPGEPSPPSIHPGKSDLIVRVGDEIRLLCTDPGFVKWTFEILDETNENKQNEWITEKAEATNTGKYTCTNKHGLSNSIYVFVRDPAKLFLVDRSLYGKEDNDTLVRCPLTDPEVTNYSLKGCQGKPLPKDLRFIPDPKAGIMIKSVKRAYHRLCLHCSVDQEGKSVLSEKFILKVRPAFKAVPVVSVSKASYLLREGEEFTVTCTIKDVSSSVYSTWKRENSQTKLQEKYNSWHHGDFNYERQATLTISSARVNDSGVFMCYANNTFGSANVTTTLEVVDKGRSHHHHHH

SCF binding to cKIT, sequence (P10721 26-524 limits assumed): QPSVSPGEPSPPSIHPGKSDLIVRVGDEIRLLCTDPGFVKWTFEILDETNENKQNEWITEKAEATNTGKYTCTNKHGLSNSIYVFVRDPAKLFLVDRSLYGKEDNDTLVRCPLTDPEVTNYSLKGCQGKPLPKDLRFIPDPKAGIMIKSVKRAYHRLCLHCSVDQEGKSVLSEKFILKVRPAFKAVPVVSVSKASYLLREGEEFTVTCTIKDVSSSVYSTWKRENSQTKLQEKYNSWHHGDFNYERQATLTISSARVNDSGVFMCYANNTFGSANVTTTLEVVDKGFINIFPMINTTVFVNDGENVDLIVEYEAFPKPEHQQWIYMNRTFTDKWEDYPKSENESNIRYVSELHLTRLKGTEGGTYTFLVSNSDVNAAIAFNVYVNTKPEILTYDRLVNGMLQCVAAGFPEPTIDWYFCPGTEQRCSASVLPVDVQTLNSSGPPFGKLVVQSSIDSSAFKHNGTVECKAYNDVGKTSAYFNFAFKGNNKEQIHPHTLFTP
T1 sequence (P10721 with tags, fused parts or gaps isoform P10721-2): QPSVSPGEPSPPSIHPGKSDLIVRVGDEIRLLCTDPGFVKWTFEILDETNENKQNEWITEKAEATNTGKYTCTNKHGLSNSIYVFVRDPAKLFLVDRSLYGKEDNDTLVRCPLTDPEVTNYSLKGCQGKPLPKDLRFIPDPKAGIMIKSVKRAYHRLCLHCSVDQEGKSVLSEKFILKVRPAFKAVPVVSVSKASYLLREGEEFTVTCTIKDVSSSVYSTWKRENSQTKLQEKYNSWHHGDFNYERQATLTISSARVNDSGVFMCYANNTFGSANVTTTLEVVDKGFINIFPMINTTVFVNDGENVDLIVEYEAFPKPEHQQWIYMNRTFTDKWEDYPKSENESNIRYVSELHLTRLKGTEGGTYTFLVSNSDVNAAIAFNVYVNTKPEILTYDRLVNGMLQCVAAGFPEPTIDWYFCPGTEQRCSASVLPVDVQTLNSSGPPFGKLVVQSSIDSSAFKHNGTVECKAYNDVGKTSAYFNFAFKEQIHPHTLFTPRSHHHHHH
T4 sequence (P10721 other isoform, or with tags, fused parts or gaps mutant limits assumed): as the sequence (P10721 with tags, fused parts or gaps isoform P10721-2) above

MabCampath [reference compound]
ADCC killing of target cells (Uke-1 cells): mediated ADCC killing of the target cells

B1: anti-cKIT antibody 9P3 (antibody, V domains shown)
VH: EVRLVESEGGLVQPRSSMKLSCTASGFTFSDYYMAWVRQVPEKGLEWVANINYDGSSTYYLDSLKSRFIISRDNAKNILYLQMSSLKSEDTATYYCARGDYYGTTYWYFDVWGTGTTVTVSS
VL: DIQMTQTTSSLSASLGDRVTISCRASQDISNYLNWYQQKPDGTVKLLIYYTSRLQSGVPSRFSGSGSGTDYSLTISNLEQEDIATYFCQQGKKLWSFGGGTKLEIKR
notes: Hybridoma-derived mouse variable domains; also called murine 9P3
anti-tumor activity (tumor volume) [1]: Neither the control non-specific IgG1 ADCs nor the unconjugated 9P3 were efficacious
blocking of SCF binding to cKIT (SCF binding to cKIT): partial blocking of SCF binding to cKIT
Affinity human cKIT (nM) (human cKIT ECD): nanomolar level
Affinity mouse cKIT (nM) (mouse cKIT ECD): Not reactive
binding result [2]: no binding (tested: 3.125-50 nM of cKIT ECD injected)
binding result [3]: no binding (tested: 3.125-50 nM of cKIT ECD injected)
Kd [4]: 20 nM

B2: NEG026 (antibody, human IgG1, kappa, V domains shown)
VH: EVQLVESGGGLVQPGGSLRLSCAASGFTFSDYYMAWVRQAPGKGLEWVANINQNTGSTYYVDSVQGRFTISRDNAKNSLYLQMNSLRAEDTAVYYCARGDYYGTTYWYFDVWGQGTTVTVSS
VL: EIVMTQSPATLSLSPGERATLSCRASQDISNYLNWYQQKPGQAPRLLIYYTSRLQSGIPARFSGSGSGTDYTLTISSLEPEDFAVYYCQQGKKLWSFGGGTKVEIKR
notes: Humanized, optimized variant of 9P3; human IgG1 kappa
binding result [5]: binds
binding result [2]: no binding (tested: 3.125-50 nM of cKIT ECD injected)
binding result [3]: no binding (tested: 3.125-50 nM of cKIT ECD injected)
